These results are taken from the supplement of paper PMC12042874.

± gives the uncertainty stated by the source.

A short description of the data set: amyloid nucleation score (Sup35N fusion, yeast selection) (log enrichment); library NNK1; higher = more nucleation; inactive = no reads after selection. An outline of the steps:
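The nucleation score is the DiMSum log enrichment of output over input reads, centred on the mode score of non-aggregating sequences. Only sequences with 100 or more input reads were scored, using Illumina sequencing of input and output plasmid inserts. Psi-negative yeast expressing Sup35N fused to peptides of 20 random codons were induced 24 hours with 100 μM copper sulfate and grown 7 days at 30°C on medium lacking adenine and uracil.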

In the case of ILVVGWFFHLGCLTMSDVVV, the amyloid nucleation score worked out at 0.225 ± 1.1.
Under LDVKSYAQVKRFSWSHSAFM stands 1.07 ± 0.4; under DARFLSWNANMID, 0.31 ± 0.19.
Substance DIVHGGYRLWTCKFGDVRYC displayed an amyloid nucleation score of -0.162 ± 0.32.
Regarding FPWVCIVVCERTS, the amyloid nucleation score was 3.41 ± 0.17.
Under SFLLNPTADMNHCFGDVFGG stands -1.44 ± 1.4; under VIMCNI, 0.068 ± 0.93.
Take GTLFYTDPLLCIVYLINLCR: the amyloid nucleation score was -0.33 ± 0.56.
The result for QKWVFVEVCSCRVSLTNLVL reads 0.233 ± 0.35; that for DIIIWSSSRHYNVNCKSNSA, 0.55 ± 0.18.
The result for CLSRHLKNGPRMA reads 0.495 ± 1; that for LDNRCKIRMVMMHSPRALRV, 0.893 ± 0.81.
Under RIRVI stands 0.544 ± 0.63; under VMMYLFYFHTRMCMSHLCYA, -0.891 ± 1.6; under FETDNIDPHGYSFEYDASPA, -0.25 ± 0.43.
The substance YEFMWRVNTLWRENLFYSGR returned an amyloid nucleation score of 0.156 ± 0.59.
Under SGKTALNSGSFKFLTSSICG stands 0.224 ± 1.4; under FVTDCLHYRRTWQLGC, 0.419 ± 0.28.
The result for NSCICLTRD reads -1.27 ± 1.7; that for YFVQYLYTLMLACYYWVISY, -1.61 ± 1.4.
The result for MNRYFFYLIRVFLRGYH reads -0.094 ± 0.64; that for MHEGKRLITGIDWWYVGVCW, 0.094 ± 0.9; that for VTCRLPETMPGGTWLNMIIR, “inactive”.
In the case of CTKCYPGVLYYFDCSGPGTR, the amyloid nucleation score was -0.51 ± 0.65.
In the case of GLDRTHYPFALNGCLLSTVS, the amyloid nucleation score amounted to 0.676 ± 0.55.
Under VLEYKD stands -1.97 ± 2.4; under VCTYGFGC, “inactive”; under ISGRVGAWSPIVYWPLRRGG, -0.573 ± 0.61.
With CAYSNKE, the amyloid nucleation score stood at 0.228 ± 0.34.
In the case of WCRCTINFRHEDLNPFFNPK, the amyloid nucleation score is 2.01 ± 0.16.
FSMWRSWNNNYSLISHSTGH gave an amyloid nucleation score of 0.367 ± 1.2.
The result for NLMNWRLYDLTGLAAWDQYS reads -0.841 ± 0.98; that for CLTSRQMMQKLMRYIKNDLG, -0.051 ± 0.32; that for RMKLTQLGYSRGNDSLSVLL, -0.813 ± 1.4.
Under EWTSCMPLAFMLPLVILSFA stands 0.532 ± 0.7.
The result for RQMLLPGMRVGKRC reads 0.144 ± 0.36; that for TRYTKKWQVLTDWSVGYTGT, -0.443 ± 0.41; that for KFMLWPNIWMN, 0.916 ± 0.54.
In turn, SFFRNLLYFMIRCGNGYRET registered an amyloid nucleation score of -0.109 ± 0.93.
The result for FNSTTTESLHAVAEGTMNPL reads 0.671 ± 0.54; that for EQTCVVGPQE, 0.397 ± 1.
The result for DLLFAVYYELEHGFERVAGR reads 4.78 ± 0.081; that for KYRVSLNFRWRFRLMISHNG, -0.002 ± 0.4.
On to NWGENWRLGMSSIREESGAE, for which the amyloid nucleation score is -0.735 ± 2.1.
The result for AFVVYMNFFHCLESNIVEWH reads 5.61 ± 0.073; that for GAGLYCR, 0.376 ± 0.52; that for MVFFTCSEMDVYMWRGYFNY, -0.727 ± 0.28.
As to VLCSRIYDHAWAKG, the amyloid nucleation score result was “inactive”.
EVYCIDVGDLSVSGKFDRSL yielded an amyloid nucleation score of 1.54 ± 0.4.
For VFLIEQPMERCK, the amyloid nucleation score turned out to be 0.199 ± 0.22.
Under AMGRLYS stands -0.41 ± 0.3; under CVIKHSLRCFAIIGLSHRGG, -0.255 ± 0.97; under RGNACVT, 0.598 ± 0.34.
The result for VGLMAVLRVGRKGLPLKNME reads -0.082 ± 0.31.
As to LYTYALARCIFISFMDCRMN, the amyloid nucleation score is 0.371 ± 0.26.
Under KLPRTCAPLYHMLTHGVGHR stands -0.075 ± 0.72; under SCVAVRLLWQDMHPRANEPR, 3.34 ± 0.13; under TMGSLMFWF, -0.356 ± 0.95.
In the case of PTDRVVLNCM, the amyloid nucleation score result is “inactive”.
The result for TSGHNVIPRGTVSSVVRILY reads -0.498 ± 0.36; that for KKMIFTVVVECSKLWPLRVV, 0.399 ± 0.69; that for RGWGELVVVNHLLRRGGGEG, -0.029 ± 0.69.
Under SAWCRSIM stands 0.952 ± 0.27; under LSDRIAYVVRGC, 0.137 ± 0.43; under TSRVH, 0.228 ± 1.2.
Under FTNNVLNINVRG stands 0.253 ± 1.2; under CSGSTRVKHFHRFFTNWLLM, 0.323 ± 0.63.
As to VRNWCVGSTVARRYHWMTCP, the amyloid nucleation score was determined as 0.413 ± 0.58.
The result for ISNYNFNRWHAVSNLGRCIS reads -0.033 ± 0.73.
Under FYDLFNVNIGLGDFKSVCFL stands 2.66 ± 0.2; under LHRITYLCSNVYSVCGLVCA, 4.35 ± 0.079.
The result for SHTAVFSRAAIEMCCRDWRA reads 0.537 ± 0.47.
For the substance LQCSCLTVWLQNRPDQLSPS, the amyloid nucleation score worked out at 0.1 ± 0.73.
The result for TFQNVLLLGSLVWNNNKS reads 0.24 ± 0.55.
Under ETRTSTETRPCKLWFYDRM stands -0.718 ± 1.2.
